In the supplement of paper PMC10065799, “High-throughput profiling of sequence recognition by tyrosine kinases and SH2 domains using bacterial peptide display” (eLife, 2023):

Key:
[1] = system: AncSZ; test: phosphorylation enrichment, bacterial display (enrichment ratio); higher = better substrate or ligand; peptides without Tyr show the background
[2] = target: EPHB1 (UniProt P54762); test: as above
[3] = target: EPHB2 (UniProt P29323); test: as above
[4] = target: FGFR1 (UniProt P11362); test: as above
Sequence of FGFR1 (P11362 whole entry, looked up): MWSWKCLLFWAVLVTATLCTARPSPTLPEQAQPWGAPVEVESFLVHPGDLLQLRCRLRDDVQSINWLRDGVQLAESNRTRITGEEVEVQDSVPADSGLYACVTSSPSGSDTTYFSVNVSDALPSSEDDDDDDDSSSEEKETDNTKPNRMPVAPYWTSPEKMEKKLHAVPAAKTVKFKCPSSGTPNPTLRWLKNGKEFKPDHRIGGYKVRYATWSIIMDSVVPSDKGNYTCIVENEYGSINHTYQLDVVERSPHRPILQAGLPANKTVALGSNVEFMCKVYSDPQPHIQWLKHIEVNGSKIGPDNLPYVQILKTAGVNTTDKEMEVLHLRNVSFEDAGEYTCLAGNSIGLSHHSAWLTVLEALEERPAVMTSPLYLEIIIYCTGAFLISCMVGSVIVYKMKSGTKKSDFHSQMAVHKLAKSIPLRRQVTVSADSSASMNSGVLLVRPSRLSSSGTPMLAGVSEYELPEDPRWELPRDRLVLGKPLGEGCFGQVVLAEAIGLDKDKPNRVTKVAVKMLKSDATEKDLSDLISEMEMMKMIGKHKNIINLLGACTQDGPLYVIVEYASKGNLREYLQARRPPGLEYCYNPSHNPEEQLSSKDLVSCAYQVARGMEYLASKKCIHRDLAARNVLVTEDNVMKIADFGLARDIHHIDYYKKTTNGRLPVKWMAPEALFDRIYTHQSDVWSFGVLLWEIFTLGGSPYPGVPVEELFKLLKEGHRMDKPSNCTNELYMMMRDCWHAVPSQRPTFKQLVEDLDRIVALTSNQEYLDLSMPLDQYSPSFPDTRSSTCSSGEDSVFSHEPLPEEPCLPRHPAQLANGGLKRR

[5] = target: FGFR3 (UniProt P22607); test: as above
[6] = system: Fer (mouse); test: as above
[7] = target: Fes (UniProt P07332); test: as above
[8] = target: Fyn (UniProt P06241); test: as above
Sequence of Fyn (P06241 whole entry, looked up): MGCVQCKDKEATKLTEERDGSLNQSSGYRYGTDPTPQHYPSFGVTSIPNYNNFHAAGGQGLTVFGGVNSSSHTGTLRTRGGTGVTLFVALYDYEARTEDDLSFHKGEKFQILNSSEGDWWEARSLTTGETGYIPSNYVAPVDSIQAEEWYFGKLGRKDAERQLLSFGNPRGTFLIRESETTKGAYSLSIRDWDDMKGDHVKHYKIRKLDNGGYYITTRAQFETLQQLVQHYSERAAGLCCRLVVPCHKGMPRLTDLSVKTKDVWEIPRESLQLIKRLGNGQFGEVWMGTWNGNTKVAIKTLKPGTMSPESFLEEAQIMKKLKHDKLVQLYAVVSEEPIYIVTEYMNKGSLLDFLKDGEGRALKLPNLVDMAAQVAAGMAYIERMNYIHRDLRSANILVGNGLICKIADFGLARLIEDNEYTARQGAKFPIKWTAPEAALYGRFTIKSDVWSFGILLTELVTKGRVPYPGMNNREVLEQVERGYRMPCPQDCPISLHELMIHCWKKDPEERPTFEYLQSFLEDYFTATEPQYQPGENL

[9] = target: Hck (UniProt P08631); test: as above
Sequence of Hck (P08631 whole entry, looked up): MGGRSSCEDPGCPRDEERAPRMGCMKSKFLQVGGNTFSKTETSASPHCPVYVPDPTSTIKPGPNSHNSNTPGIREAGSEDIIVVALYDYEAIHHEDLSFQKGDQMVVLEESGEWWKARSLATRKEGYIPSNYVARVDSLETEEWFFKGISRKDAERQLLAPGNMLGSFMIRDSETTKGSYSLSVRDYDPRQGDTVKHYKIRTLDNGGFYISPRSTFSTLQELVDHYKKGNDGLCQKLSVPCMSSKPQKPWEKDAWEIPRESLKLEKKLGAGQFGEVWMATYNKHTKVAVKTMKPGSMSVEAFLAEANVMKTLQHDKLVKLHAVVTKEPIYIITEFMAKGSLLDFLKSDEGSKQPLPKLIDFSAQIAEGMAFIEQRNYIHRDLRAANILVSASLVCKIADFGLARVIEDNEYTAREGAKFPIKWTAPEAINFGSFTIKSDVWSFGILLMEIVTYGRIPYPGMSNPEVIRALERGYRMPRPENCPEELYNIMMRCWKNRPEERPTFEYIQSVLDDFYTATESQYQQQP

[10] = target: Jak2 (UniProt O60674); test: as above
Sequence of Jak2 (O60674 whole entry, looked up): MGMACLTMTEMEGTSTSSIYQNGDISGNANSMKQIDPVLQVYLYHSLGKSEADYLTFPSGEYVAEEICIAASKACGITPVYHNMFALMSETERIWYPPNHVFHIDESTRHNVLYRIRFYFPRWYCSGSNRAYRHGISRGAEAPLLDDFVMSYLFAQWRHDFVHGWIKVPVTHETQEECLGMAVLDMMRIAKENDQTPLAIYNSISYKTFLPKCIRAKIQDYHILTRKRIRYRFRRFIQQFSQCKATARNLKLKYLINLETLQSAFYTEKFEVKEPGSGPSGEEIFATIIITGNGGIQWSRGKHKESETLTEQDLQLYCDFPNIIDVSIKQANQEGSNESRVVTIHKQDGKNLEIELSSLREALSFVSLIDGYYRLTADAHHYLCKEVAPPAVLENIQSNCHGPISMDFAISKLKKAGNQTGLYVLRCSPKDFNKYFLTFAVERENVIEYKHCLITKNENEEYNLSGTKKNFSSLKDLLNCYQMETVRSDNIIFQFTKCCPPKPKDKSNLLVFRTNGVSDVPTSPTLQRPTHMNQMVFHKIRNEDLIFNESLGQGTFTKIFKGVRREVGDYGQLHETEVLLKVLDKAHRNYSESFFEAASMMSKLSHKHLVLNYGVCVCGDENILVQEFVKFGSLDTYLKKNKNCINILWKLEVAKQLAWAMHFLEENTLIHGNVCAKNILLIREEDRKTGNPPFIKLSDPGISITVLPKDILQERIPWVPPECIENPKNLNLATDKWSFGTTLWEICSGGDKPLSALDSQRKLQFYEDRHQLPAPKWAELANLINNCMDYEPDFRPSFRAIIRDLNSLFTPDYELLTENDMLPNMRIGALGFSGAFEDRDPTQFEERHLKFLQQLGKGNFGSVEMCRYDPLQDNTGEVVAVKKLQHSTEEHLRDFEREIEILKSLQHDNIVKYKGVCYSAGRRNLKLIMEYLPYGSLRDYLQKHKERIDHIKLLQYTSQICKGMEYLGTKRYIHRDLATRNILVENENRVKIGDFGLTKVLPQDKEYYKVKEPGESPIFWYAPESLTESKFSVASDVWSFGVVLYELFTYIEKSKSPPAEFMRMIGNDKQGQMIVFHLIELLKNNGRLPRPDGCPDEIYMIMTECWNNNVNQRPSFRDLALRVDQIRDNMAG

[11] = target: MERTK (UniProt Q12866); test: as above
[12] = system: c-Abl (mouse); test: as above
[13] = system: c-Src; test: as above
[14] = target: Grb2 SH2 (UniProt P62993); test: SH2 binding enrichment of the phosphorylated peptide, bacterial display (enrichment ratio); higher = better substrate or ligand; peptides without Tyr show the background
[15] = target: SHP2-C SH2; test: as above
[16] = target: c-Src SH2; test: as above
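For SH2 binding enrichment of the phosphorylated peptide, bacterial display in this document: peptide library displayed on the E. coli surface as eCPX fusions, selected cells deep-sequenced, score is each peptide's frequency after selection divided by its frequency in the input.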
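For phosphorylation enrichment, bacterial display in this document: 11-residue human phosphosite peptides and single-mutation variants displayed on the E. coli surface, counted by deep sequencing, each peptide's frequency after selection divided by its frequency in the unselected input library; frequency after pTyr selection over input frequency; kinase dosed for 20-30% of maximal phosphorylation in three min.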

Sequence of EPHB1 (P54762 whole entry, looked up): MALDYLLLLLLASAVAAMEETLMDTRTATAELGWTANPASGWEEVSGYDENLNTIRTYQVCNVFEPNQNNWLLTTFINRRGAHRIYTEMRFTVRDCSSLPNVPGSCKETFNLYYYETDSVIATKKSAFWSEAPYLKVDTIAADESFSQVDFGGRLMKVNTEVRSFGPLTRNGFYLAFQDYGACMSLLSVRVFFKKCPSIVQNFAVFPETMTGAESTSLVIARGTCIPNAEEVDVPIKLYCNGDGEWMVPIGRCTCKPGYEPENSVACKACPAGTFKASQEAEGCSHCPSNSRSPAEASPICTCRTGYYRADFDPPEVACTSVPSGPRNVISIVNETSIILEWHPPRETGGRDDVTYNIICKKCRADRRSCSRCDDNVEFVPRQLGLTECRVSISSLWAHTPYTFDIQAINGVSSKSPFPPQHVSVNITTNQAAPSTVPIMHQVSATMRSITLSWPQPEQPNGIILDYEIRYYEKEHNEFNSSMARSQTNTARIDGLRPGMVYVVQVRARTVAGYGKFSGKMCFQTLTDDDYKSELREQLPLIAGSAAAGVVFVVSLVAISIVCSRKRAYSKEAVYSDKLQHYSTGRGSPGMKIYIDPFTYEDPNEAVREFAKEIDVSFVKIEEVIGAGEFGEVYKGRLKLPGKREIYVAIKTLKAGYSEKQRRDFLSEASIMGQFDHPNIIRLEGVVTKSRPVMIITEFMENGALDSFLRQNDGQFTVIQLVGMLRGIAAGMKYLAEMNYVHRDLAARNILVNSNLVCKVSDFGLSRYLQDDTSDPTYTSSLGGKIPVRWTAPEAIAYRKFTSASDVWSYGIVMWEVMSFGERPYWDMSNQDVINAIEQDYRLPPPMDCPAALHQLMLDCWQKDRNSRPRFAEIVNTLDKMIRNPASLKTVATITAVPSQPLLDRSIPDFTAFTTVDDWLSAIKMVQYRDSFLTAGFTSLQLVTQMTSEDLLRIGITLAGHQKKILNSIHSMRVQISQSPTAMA
Sequence of EPHB2 (P29323 whole entry, looked up): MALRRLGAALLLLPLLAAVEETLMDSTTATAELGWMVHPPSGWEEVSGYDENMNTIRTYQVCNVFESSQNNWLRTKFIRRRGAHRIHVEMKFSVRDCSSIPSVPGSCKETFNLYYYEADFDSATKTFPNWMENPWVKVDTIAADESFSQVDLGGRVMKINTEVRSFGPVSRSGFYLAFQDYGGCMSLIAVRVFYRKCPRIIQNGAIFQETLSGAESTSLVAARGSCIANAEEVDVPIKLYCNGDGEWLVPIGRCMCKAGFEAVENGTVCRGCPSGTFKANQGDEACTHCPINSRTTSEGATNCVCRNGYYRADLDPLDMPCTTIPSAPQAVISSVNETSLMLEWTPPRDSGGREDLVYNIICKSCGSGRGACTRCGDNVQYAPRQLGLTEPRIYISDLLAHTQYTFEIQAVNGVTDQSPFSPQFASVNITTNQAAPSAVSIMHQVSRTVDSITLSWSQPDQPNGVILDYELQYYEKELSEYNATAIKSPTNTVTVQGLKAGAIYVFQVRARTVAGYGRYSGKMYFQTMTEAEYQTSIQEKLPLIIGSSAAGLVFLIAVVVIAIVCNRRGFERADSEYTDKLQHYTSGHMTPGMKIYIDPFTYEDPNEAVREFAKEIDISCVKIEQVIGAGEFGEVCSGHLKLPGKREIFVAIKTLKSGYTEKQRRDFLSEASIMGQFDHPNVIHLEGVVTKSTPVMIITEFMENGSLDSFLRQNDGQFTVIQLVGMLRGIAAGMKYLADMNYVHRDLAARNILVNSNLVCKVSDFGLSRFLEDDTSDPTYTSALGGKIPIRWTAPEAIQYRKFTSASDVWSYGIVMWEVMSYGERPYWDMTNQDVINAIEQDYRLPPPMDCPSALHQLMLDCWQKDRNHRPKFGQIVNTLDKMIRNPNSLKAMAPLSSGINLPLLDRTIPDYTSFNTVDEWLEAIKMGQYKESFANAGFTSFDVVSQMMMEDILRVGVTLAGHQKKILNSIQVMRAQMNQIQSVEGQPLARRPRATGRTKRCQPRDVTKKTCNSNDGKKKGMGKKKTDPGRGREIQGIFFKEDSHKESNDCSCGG

Row | Sequence | SH2 binding enrichment [14] | SH2 binding enrichment [15] | SH2 binding enrichment [16] | phosphorylation enrichment [1] | phosphorylation enrichment [2] | phosphorylation enrichment [3] | phosphorylation enrichment [4] | phosphorylation enrichment [5] | phosphorylation enrichment [6] | phosphorylation enrichment [7] | phosphorylation enrichment [8] | phosphorylation enrichment [9] | phosphorylation enrichment [10] | phosphorylation enrichment [11] | phosphorylation enrichment [12] | phosphorylation enrichment [13]
1 | FSDQVYRQRRK [TH_Y230] | 0.634 | 0.446 | 0.421 | 0.853 | 0.557 | 0.663 | 0.474 | 0.568 | 0.551 | 0.787 | 0.615 | 0.493 | 0.658 | 0.649 | 0.735 | 0.774
2 | RVAFQYGVTDL [MYBPC3_Y340_I336V] | 0.697 | 0.432 | 0.545 | 1.16 | 0.461 | 0.827 | 0.456 | 0.842 | 0.576 | 1.27 | 0.49 | 0.599 | 1.08 | 0.471 | 0.764 | 0.493
3 | IEEGTYGVAYR [CDK11B_Y449_V452A] | 0.681 | 0.662 | 0.471 | 1.24 | 0.686 | 2.44 | 0.494 | 0.635 | 5.71 | 1 | 7.54 | 5.91 | 0.928 | 2.22 | 0.836 | 5.77
4 | KFEDVYVGICL [B3GALNT1_Y269] | 0.647 | 0.41 | 0.458 | 1.37 | 0.857 | 0.715 | 1.23 | 1.24 | 2.52 | 1.33 | 3.06 | 1.99 | 1.16 | 0.592 | 1.02 | 2.92

More lines, main results first:

Row | SH2 binding enrichment [14] | SH2 binding enrichment [15] | SH2 binding enrichment [16] | Sequence | phosphorylation enrichment [1] | phosphorylation enrichment [2] | phosphorylation enrichment [3] | phosphorylation enrichment [4] | phosphorylation enrichment [5] | phosphorylation enrichment [6] | phosphorylation enrichment [7] | phosphorylation enrichment [8] | phosphorylation enrichment [9] | phosphorylation enrichment [10] | phosphorylation enrichment [11] | phosphorylation enrichment [12] | phosphorylation enrichment [13]
5 | 0.772 | 0.798 | 0.498 | WNRDKYAATTT [TRIM39_Y439_G436R] | 0.734 | 0.448 | 0.401 | 0.439 | 0.34 | 0.37 | 0.59 | 0.358 | 0.375 | 0.65 | 0.471 | 0.542 | 0.411
6 | 0.731 | 0.401 | 0.449 | FSALDYKIFFF [WDPCP_Y210_L205F_YF] | 1.57 | 0.675 | 0.54 | 0.6 | 0.981 | 0.541 | 1.64 | 0.416 | 0.504 | 1.69 | 0.468 | 1.13 | 0.67
7 | 0.781 | 0.651 | 0.539 | MEVGQYIFVKC [CYBB_Y324] | 1.74 | 0.835 | 0.723 | 2.8 | 2.43 | 0.708 | 1.53 | 0.599 | 0.582 | 1.53 | 0.511 | 1.01 | 0.463
8 | 0.76 | 0.717 | 0.453 | SVTYTYSPALN [TP53_Y126_C124Y] | 1.5 | 0.95 | 0.87 | 1.24 | 1.34 | 0.621 | 1.16 | 0.967 | 1.17 | 0.997 | 2.79 | 1.78 | 0.998
